Experimental data published in paper PMC7111020 (2007).

T1: mTIM-1 (Mus musculus, UniProt Q5QNS5)
T1 chain: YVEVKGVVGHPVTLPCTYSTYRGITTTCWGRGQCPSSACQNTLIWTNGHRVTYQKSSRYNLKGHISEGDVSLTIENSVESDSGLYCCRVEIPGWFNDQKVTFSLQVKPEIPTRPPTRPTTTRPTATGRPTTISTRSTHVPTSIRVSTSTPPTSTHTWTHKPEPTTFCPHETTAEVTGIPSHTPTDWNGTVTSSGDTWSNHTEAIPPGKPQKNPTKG


Columns and labels:
mTIM-1 = target: T1, mTIM-1; assay: SPR
[1] = target: the molecule itself; assay: sedimentation equilibrium analytical ultracentrifugation

Kd (mTIM-1)	Binder	Kd [1]
~0.6 µM	mTIM-1 ECD (protein) YVEVKGVVGHPVTLPCTYSTYRGITTTCWGRGQCPSSACQNTLIWTNGHRVTYQKSSRYNLKGHISEGDVSLTIENSVESDSGLYCCRVEIPGWFNDQKVTFSLQVKPEIPTRPPTRPTTTRPTATGRPTTISTRSTHVPTSIRVSTSTPPTSTHTWTHKPEPTTFCPHETTAEVTGIPSHTPTDWNGTVTSSGDTWSNHTEAIPPGKPQKNPTKG	–
–	mTIM-2 20-129 (protein) ESHTAVQGLAGHPVTLPCIYSTHLGGIVPMCWGLGECRHSYCIRSLIWTNGYTVTHQRNSLYQLKGNISEGNVSLTIENTVVGDGGPYCCVVEIPGAFHFVDYMLEVKPE	~300 µM
